Measurements from the supplement of paper PMC7125110.
± gives the standard error. For part of these data: This sample holds only a part of the variants without activity.

B1: glmS ribozyme (parent)
chain: AUAAAAGCGCCAGAACUACAGAAAUGUAGUUGACGAGGAGGAGGUUUAUCGAAUUUUCGGCGGAUGCCUCCAAA

Tests used:
Details in all cases: with glucosamine-6-phosphate
glucosamine-6-phosphate [1] = variants of: B1; test: kcat; higher = faster cleavage; RNA array
How it was run: (§1)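 A hybridised Cy3 probe tracked barcoded ribozyme variants, transcribed in situ by E. coli RNA polymerase on sequenced MiSeq chips, at 37 °C. The variants received 40 μM to 10 mM glucosamine-6-phosphate in HEPES/KCl/Mg(OAc)2 buffer. kobs came from decay fits and kcat and KM from weighted Michaelis–Menten fits.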

glucosamine-6-phosphate [2] = variants of: B1; test: self-cleavage kobs at 40 uM GlcN6P; higher = faster cleavage; RNA array
How it was run: as §1

glucosamine-6-phosphate [3] = variants of: B1; test: self-cleavage kobs at 160 uM GlcN6P; higher = faster cleavage; RNA array
How it was run: as §1

glucosamine-6-phosphate [4] = variants of: B1; test: self-cleavage kobs at 640 uM GlcN6P; higher = faster cleavage; RNA array
How it was run: as §1

glucosamine-6-phosphate [5] = variants of: B1; test: self-cleavage kobs at 2500 uM GlcN6P; higher = faster cleavage; RNA array
How it was run: as §1

glucosamine-6-phosphate [6] = variants of: B1; test: self-cleavage kobs at 10000 uM GlcN6P; higher = faster cleavage; RNA array
How it was run: as §1

glucosamine-6-phosphate [7] = variants of: B1; test: KM; higher = weaker cofactor use; RNA array
How it was run: as §1

| Variant | kcat (glucosamine-6-phosphate [1]) | self-cleavage kobs at 40 uM GlcN6P (glucosamine-6-phosphate [2]) | self-cleavage kobs at 160 uM GlcN6P (glucosamine-6-phosphate [3]) | self-cleavage kobs at 640 uM GlcN6P (glucosamine-6-phosphate [4]) | self-cleavage kobs at 2500 uM GlcN6P (glucosamine-6-phosphate [5]) | self-cleavage kobs at 10000 uM GlcN6P (glucosamine-6-phosphate [6]) | KM (glucosamine-6-phosphate [7]) |
| --- | --- | --- | --- | --- | --- | --- | --- |
| G38U C58U U69G | 0.000168 ± 1.3e-05 s⁻¹ | 0.000148 ± 4.2e-05 s⁻¹ | 0.000207 ± 5.2e-05 s⁻¹ | 0.000157 ± 2.8e-05 s⁻¹ | 0.000189 ± 6.3e-05 s⁻¹ | 0.000156 ± 4.9e-05 s⁻¹ |  |
| A39U C68U | 0.00901 ± 0.0018 s⁻¹ | 0.000444 ± 8.6e-05 s⁻¹ | 0.000829 ± 9e-05 s⁻¹ | 0.00309 ± 0.00026 s⁻¹ | 0.00636 ± 0.00063 s⁻¹ | 0.00694 ± 0.0011 s⁻¹ | 1340 ± 420 µM |
| A33G C70G | 1.95e-05 ± 6.8e-06 s⁻¹ |  |  |  |  |  |  |
| G37A U46A | 0.000136 ± 4.3e-06 s⁻¹ | < 1e-05 s⁻¹ |  | 2.37e-05 ± 7.5e-06 s⁻¹ | 6.45e-05 ± 7.8e-06 s⁻¹ | 0.000105 ± 1.1e-05 s⁻¹ | 2840 ± 210 µM |
| G40A A48U | 0.000176 ± 1.7e-05 s⁻¹ |  |  | 2.83e-05 ± 8.5e-06 s⁻¹ | 9.03e-05 ± 1.2e-05 s⁻¹ | 0.000133 ± 1.7e-05 s⁻¹ | 2780 ± 590 µM |
| G37C C70U | 2.69e-05 ± 6.4e-06 s⁻¹ |  |  | 2.26e-05 ± 9.4e-06 s⁻¹ | 1.7e-05 ± 5.8e-06 s⁻¹ | 3.18e-05 ± 7.2e-06 s⁻¹ |  |
| A39C A48G U55C | 6.53e-05 ± 4.8e-06 s⁻¹ | < 1e-05 s⁻¹ |  |  |  | 2.91e-05 ± 1.2e-05 s⁻¹ |  |
| A39C C71A | 6.38e-05 ± 6.4e-06 s⁻¹ |  |  |  | 4.16e-05 ± 1.1e-05 s⁻¹ | 5.25e-05 ± 7.2e-06 s⁻¹ | 1930 ± 720 µM |
| A39C A64U | 1.4e-05 ± 2.1e-06 s⁻¹ |  |  |  |  |  |  |
| G40C A42U | 3.99e-05 ± 4.6e-06 s⁻¹ |  |  |  | 4.68e-05 ± 2.2e-05 s⁻¹ | 3.64e-05 ± 1.1e-05 s⁻¹ |  |
| G37C A52G | < 1e-05 s⁻¹ | < 1e-05 s⁻¹ |  |  |  |  |  |
| G41A A53C | 0.000213 ± 5.7e-05 s⁻¹ |  |  | 8.67e-05 ± 2.5e-05 s⁻¹ | 0.000101 ± 2.7e-05 s⁻¹ | 0.000202 ± 3.9e-05 s⁻¹ |  |
| G41A A53U | 0.000693 ± 8.4e-05 s⁻¹ | 5.42e-05 ± 9e-06 s⁻¹ | 0.00012 ± 3.1e-05 s⁻¹ | 0.000358 ± 5.8e-05 s⁻¹ | 0.00063 ± 0.00014 s⁻¹ | 0.000656 ± 0.0001 s⁻¹ | 562 ± 120 µM |
| G38U A48G | < 1e-05 s⁻¹ | < 1e-05 s⁻¹ |  | < 1e-05 s⁻¹ |  |  |  |
| G40U C71U | 0.00842 ± 0.0008 s⁻¹ | 0.000232 ± 1.6e-05 s⁻¹ | 0.000742 ± 0.00011 s⁻¹ | 0.00248 ± 0.00024 s⁻¹ | 0.00464 ± 0.0005 s⁻¹ | 0.00794 ± 0.00065 s⁻¹ | 1490 ± 200 µM |
| G37U C70G | 2.07e-05 ± 8.5e-06 s⁻¹ |  |  |  |  |  |  |

| Variant | kcat (glucosamine-6-phosphate [1]) | self-cleavage kobs at 40 uM GlcN6P (glucosamine-6-phosphate [2]) | self-cleavage kobs at 160 uM GlcN6P (glucosamine-6-phosphate [3]) | self-cleavage kobs at 640 uM GlcN6P (glucosamine-6-phosphate [4]) | self-cleavage kobs at 2500 uM GlcN6P (glucosamine-6-phosphate [5]) | self-cleavage kobs at 10000 uM GlcN6P (glucosamine-6-phosphate [6]) | KM (glucosamine-6-phosphate [7]) |
| --- | --- | --- | --- | --- | --- | --- | --- |
| G40A C70U | 0.000518 ± 0.0001 s⁻¹ | 0.000102 ± 1.8e-05 s⁻¹ |  |  | 0.000417 ± 0.00011 s⁻¹ | 0.000752 ± 0.00019 s⁻¹ | 165 ± 58 µM |
| A39U A53C | 0.00528 ± 0.0015 s⁻¹ | 9.69e-05 ± 1.1e-05 s⁻¹ | 0.000314 ± 4.2e-05 s⁻¹ | 0.000759 ± 8.9e-05 s⁻¹ | 0.00228 ± 0.00027 s⁻¹ | 0.00454 ± 0.00047 s⁻¹ | 2890 ± 1100 µM |
| A39U A53G | 0.0183 ± 0.0065 s⁻¹ | 0.000648 ± 6.7e-05 s⁻¹ | 0.00141 ± 0.00023 s⁻¹ | 0.0052 ± 0.00085 s⁻¹ | 0.0187 ± 0.0064 s⁻¹ | 0.0166 ± 0.0029 s⁻¹ | 1410 ± 620 µM |
| G40C U45G | 0.000791 ± 0.00034 s⁻¹ |  | 9.8e-05 ± 1.7e-05 s⁻¹ | 0.000646 ± 0.00013 s⁻¹ | 0.000445 ± 7.5e-05 s⁻¹ | 0.00114 ± 0.00025 s⁻¹ |  |
| G37A U45G | 0.00169 ± 0.00018 s⁻¹ |  | 8.96e-05 ± 3.2e-05 s⁻¹ | 0.000349 ± 6.9e-05 s⁻¹ | 0.000738 ± 0.00016 s⁻¹ | 0.00132 ± 0.00019 s⁻¹ | 2870 ± 530 µM |
| G35C A52G | < 1e-05 s⁻¹ |  | < 1e-05 s⁻¹ | < 1e-05 s⁻¹ |  | < 1e-05 s⁻¹ |  |
| G37C A53G | 3.88e-05 ± 1.1e-05 s⁻¹ | < 1e-05 s⁻¹ |  |  | 5.73e-05 ± 1.6e-05 s⁻¹ | 3.11e-05 ± 1.1e-05 s⁻¹ |  |
| G41C A42U | 4.23e-05 ± 1.3e-06 s⁻¹ |  | < 1e-05 s⁻¹ |  |  | 3.82e-05 ± 6.7e-06 s⁻¹ | 1050 ± 290 µM |
| G41C A42G | 0.00017 ± 1e-05 s⁻¹ |  |  | 6.25e-05 ± 1e-05 s⁻¹ | 0.000107 ± 1.5e-05 s⁻¹ | 0.000158 ± 1.9e-05 s⁻¹ | 1210 ± 190 µM |
| A39G G40U | 0.0022 ± 0.00044 s⁻¹ | 9.64e-05 ± 1.6e-05 s⁻¹ | 0.000207 ± 4.9e-05 s⁻¹ | 0.000551 ± 8.8e-05 s⁻¹ | 0.0015 ± 0.00022 s⁻¹ | 0.00197 ± 0.00022 s⁻¹ | 1420 ± 510 µM |
| A33U C50U | < 1e-05 s⁻¹ | < 1e-05 s⁻¹ | < 1e-05 s⁻¹ |  | < 1e-05 s⁻¹ | < 1e-05 s⁻¹ |  |
| A33C A39G | 0.0011 ± 0.0002 s⁻¹ |  |  | 0.000138 ± 1.9e-05 s⁻¹ | 0.000373 ± 9.9e-05 s⁻¹ | 0.000722 ± 8.1e-05 s⁻¹ | 5030 ± 1400 µM |
| G37A A52U | 5.16e-05 ± 5.1e-06 s⁻¹ |  | < 1e-05 s⁻¹ |  |  | 3.07e-05 ± 8.4e-06 s⁻¹ | 6790 ± 1600 µM |
| G40C U46C | 0.00119 ± 0.00012 s⁻¹ |  | 9.41e-05 ± 1.9e-05 s⁻¹ | 0.000304 ± 6.3e-05 s⁻¹ | 0.000729 ± 0.00014 s⁻¹ | 0.000967 ± 0.00024 s⁻¹ | 1800 ± 280 µM |
| G41U A53C | 0.000167 ± 4e-05 s⁻¹ | < 1e-05 s⁻¹ |  | 5.64e-05 ± 1.2e-05 s⁻¹ | 7.23e-05 ± 9.5e-06 s⁻¹ | 0.000139 ± 1.2e-05 s⁻¹ |  |
| A33G G35A G37A C71U | 1.55e-05 ± 4.5e-06 s⁻¹ |  |  |  |  |  |  |
